Our source for the Kd and apparent Kd (screen) values is publication PMC3433420.

One test concerns the target SRC SH2 domain (human) (UniProt P12931). Nature of the test: peptide or protein array; SH2/PTB proteins spotted on aldehyde slides, rhodamine peptide titrated in buffer B (20 mM HEPES, 100 mM KCl, 0.1% Tween-20, 5 mM DTT, pH 7.8), 1 h at room temperature; replicate assays.
The target of test [1] is PLCG2 tandem SH2 domains (human). Described as above.
In a further test the target is SHF SH2 domain (human) (UniProt Q7M4L6). Described as above.
In test [2] the target is RASA1 tandem SH2 domains (human). Described as above.
In a further test the target is ITK SH2 domain (human) (UniProt Q08881). The test is described as above.
The next test concerns the target NCK2 SH2 domain (human) (UniProt O43639). The test is described as above.
In test [3] the target is SH2D1A SH2 domain (human) (UniProt O60880). The test is described as above.
The target of test [4] is PIK3R2 tandem SH2 domains (human) (UniProt O00459). The description is as above.
Test [5] addresses PIK3R3 tandem SH2 domains (human). Described as above.
The target of another test is ABL2 SH2 domain (human) (UniProt P42684). The description is as above.
In another test the target is HSH2D SH2 domain (human) (UniProt Q96JZ2). The test is described as above.
Test [6] deals with PLCG1 C-terminal SH2 domain (human). The description is as above.
For test [7], the target named is RASA1 N-terminal SH2 domain (human) (UniProt P20936). The description is as above.
The target in test [8] is PIK3R1 tandem SH2 domains (human) (UniProt P27986). The description is as above.
Another test addresses VAV2 SH2 domain (human) (UniProt P52735). The test is described as above.
Test [9] deals with SH2D3A SH2 domain (human) (UniProt Q9BRG2). The description is as above.
The target of test [10] is ErbB3-pY1260 phosphopeptide, rhodamine-labelled (human). Nature of the test: fluorescence polarisation; saturation binding in solution; rhodamine-labeled peptide fixed at 10 nM, protein titrated 0.002-10 µM (twelve two-fold dilutions); 20 minutes at room temperature in the dark; assay buffer 20 mM HEPES, 100 mM KCl, 0.1% Tween-20, 5 mM DTT, pH 7.8; apparent KD; assay detection threshold of 20 µM.

The target of test [11] is ErbB3-pY1197 phosphopeptide, rhodamine-labelled (human). The test is described as above.
Another test has as its target SHC3 (Homo sapiens) (UniProt Q92529). The note with it: cited from earlier work.
The next test concerns the target BLK (Homo sapiens) (UniProt P51451). The note with it: cited from earlier work.
Another test addresses ITK (Homo sapiens) (UniProt Q08881). As to conditions: cited from earlier work.
The next test has as its target LYN (Homo sapiens) (UniProt P07948). As to conditions: cited from earlier work.
Another test concerns the target CRKL (Homo sapiens) (UniProt P46109). The note with it: cited from earlier work.
Test [12] has as its target PIK3R3-NC (Homo sapiens) (UniProt Q92569). As to conditions: cited from earlier work.
A further test concerns the target PIK3R1-N (Homo sapiens) (UniProt P27986). The note with it: cited from earlier work.
In the next test the target is ABL2 (Homo sapiens) (UniProt P42684). As to conditions: cited from earlier work.
The target in a further test is YES1 (Homo sapiens) (UniProt P07947). As to conditions: cited from earlier work.
Another test deals with PLCG2-NC (Homo sapiens) (UniProt P16885). As to conditions: cited from earlier work.
The target of a further test is RASA1-N (Homo sapiens) (UniProt P20936). The note with it: cited from earlier work.
In a further test the target is FGR (Homo sapiens) (UniProt P09769). The note with it: cited from earlier work.
A further test deals with SRC (Homo sapiens) (UniProt P12931). As to conditions: cited from earlier work.
For another test, the target named is SYK-N (Homo sapiens) (UniProt P43405). As to conditions: cited from earlier work.
Test [13] deals with SHC1-PTB (Homo sapiens) (UniProt P29353). As to conditions: cited from earlier work.
For the next test, the target named is PIK3R2-N (Homo sapiens) (UniProt O00459). As to conditions: cited from earlier work.
Another test has as its target GRB2 (Homo sapiens) (UniProt P62993). The note with it: cited from earlier work.
A further test concerns the target TEC (Homo sapiens) (UniProt P42680). The note with it: cited from earlier work.
A further test concerns the target SYK-NC (Homo sapiens) (UniProt P43405). As to conditions: cited from earlier work.
The target of another test is SHC1 (Homo sapiens) (UniProt P29353). The note with it: cited from earlier work.
Test [14] concerns the target PIK3R3-NC (Homo sapiens) (UniProt Q92569). As to conditions: cited from earlier work. This is another data set of the same source.
The target of a further test is GRB7 (Homo sapiens) (UniProt Q14451). The note with it: cited from earlier work.
For the next test, the target named is CRK (Homo sapiens) (UniProt P46108). The note with it: cited from earlier work.
For test [15], the target named is SHC1-PTB (Homo sapiens) (UniProt P29353). As to conditions: cited from earlier work. The source holds these as a separate data set.
The target of the next test is RASA1-NC (Homo sapiens) (UniProt P20936). As to conditions: cited from earlier work.
The target in another test is PIK3R1-NC (Homo sapiens) (UniProt P27986). As to conditions: cited from earlier work.

Several values for one entry are separate records, joined by “and”; a condition that tells them apart may be missing. Identical values can stand only once. Like-named read-outs stand apart in the source and are kept apart here.

Chain of ABL2 SH2 domain (human) (P42684 173-263): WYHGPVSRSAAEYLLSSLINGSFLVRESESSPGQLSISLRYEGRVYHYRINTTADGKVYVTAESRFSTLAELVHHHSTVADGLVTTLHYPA
Chain of GRB7 SH2 domain (Q14451 431-527): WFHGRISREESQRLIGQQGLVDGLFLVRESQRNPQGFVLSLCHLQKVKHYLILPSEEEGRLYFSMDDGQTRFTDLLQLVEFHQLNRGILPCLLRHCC
Chain of SHC1-PTB (Homo sapiens) (P29353 483-583): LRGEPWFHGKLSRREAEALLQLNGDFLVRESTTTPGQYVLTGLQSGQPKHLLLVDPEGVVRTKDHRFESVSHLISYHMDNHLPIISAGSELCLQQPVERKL
Chain of PIK3R1 tandem SH2 domains (human) (P27986 whole entry, the tested form may be a part): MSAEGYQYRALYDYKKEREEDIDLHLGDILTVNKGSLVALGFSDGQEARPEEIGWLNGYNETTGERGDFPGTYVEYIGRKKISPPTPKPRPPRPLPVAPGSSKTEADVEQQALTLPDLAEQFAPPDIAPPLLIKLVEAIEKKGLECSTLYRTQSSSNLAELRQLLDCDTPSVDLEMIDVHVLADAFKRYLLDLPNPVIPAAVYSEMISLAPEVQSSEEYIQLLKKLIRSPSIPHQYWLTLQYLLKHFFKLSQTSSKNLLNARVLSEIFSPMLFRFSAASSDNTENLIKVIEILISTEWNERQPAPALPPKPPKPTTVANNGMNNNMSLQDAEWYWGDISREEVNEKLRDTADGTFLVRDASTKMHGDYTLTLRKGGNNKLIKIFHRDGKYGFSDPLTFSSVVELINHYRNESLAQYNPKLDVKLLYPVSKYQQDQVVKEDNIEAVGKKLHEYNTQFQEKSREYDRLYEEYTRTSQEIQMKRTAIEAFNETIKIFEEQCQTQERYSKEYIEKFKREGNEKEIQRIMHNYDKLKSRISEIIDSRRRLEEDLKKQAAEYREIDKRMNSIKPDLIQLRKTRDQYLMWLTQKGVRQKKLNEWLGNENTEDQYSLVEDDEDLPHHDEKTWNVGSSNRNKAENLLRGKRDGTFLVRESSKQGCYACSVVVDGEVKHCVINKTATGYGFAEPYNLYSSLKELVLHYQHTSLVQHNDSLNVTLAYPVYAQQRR
Chain of RASA1 N-terminal SH2 domain (human) (P20936 whole entry, the tested form may be a part): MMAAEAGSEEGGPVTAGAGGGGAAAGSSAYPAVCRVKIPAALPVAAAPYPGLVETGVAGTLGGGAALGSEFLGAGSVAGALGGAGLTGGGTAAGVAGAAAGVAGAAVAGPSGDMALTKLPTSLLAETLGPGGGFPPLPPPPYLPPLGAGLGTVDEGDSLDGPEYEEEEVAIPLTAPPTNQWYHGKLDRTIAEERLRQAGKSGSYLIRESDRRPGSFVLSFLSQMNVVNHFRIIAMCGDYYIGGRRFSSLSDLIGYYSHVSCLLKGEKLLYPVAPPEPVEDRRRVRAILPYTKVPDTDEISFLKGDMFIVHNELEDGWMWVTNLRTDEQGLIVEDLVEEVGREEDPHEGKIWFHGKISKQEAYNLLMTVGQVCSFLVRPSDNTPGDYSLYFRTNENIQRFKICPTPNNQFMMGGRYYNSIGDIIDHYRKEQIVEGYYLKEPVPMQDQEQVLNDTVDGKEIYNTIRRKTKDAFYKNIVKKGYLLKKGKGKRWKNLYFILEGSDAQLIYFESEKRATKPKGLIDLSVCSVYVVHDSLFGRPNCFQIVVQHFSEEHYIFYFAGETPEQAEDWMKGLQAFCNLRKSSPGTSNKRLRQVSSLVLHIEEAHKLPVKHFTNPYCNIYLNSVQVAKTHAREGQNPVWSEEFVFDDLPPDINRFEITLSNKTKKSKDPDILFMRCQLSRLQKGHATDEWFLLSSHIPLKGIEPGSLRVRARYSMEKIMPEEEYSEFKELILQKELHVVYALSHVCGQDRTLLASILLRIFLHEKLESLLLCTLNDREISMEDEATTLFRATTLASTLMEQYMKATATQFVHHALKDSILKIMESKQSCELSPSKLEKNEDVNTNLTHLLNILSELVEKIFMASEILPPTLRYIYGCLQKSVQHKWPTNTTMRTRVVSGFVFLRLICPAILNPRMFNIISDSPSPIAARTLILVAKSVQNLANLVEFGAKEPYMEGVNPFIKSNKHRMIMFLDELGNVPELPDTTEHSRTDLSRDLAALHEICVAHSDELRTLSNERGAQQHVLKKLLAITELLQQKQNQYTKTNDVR
Chain of GRB2 (Homo sapiens) (P62993 55-157): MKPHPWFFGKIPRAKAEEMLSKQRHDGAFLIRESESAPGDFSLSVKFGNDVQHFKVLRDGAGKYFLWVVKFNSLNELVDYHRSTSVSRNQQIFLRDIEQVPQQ
Chain of YES1 (Homo sapiens) (P07947 153-260): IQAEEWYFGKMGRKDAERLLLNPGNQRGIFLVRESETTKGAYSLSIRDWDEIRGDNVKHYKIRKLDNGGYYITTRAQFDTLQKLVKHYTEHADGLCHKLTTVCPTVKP
Chain of SHC3 (Homo sapiens) (Q92529 494-594): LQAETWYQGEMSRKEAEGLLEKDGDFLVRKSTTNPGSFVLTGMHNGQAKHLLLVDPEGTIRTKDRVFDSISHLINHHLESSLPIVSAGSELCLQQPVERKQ
Chain of ITK SH2 domain (human) (Q08881 239-338): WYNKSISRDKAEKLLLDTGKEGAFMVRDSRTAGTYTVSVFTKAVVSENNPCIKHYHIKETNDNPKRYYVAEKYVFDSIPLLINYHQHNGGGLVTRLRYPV
Chain of SHF SH2 domain (human) (Q7M4L6 323-418): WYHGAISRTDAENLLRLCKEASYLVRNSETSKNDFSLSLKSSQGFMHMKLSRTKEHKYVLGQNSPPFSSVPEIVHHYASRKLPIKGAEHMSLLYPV
Chain of CRKL (Homo sapiens) (P46109 9-107): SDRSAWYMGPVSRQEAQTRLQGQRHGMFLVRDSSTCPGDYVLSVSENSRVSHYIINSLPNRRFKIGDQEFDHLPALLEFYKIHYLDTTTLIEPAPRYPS
Chain of RASA1-N (Homo sapiens) (P20936 176-446): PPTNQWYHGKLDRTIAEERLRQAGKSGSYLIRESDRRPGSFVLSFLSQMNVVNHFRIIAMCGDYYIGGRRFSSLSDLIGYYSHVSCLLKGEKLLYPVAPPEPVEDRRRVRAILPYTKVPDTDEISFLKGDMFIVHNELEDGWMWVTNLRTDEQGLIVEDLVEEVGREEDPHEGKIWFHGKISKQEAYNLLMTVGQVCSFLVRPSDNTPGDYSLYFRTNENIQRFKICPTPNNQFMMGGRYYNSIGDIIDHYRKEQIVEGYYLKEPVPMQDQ
Chain of RASA1-NC (Homo sapiens) (P20936 176-446): as above
Chain of CRK (Homo sapiens) (P46108 8-123): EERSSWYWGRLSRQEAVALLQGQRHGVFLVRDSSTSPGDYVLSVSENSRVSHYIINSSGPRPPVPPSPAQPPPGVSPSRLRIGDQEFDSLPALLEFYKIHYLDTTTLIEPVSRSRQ
Chain of NCK2 SH2 domain (human) (O43639 285-380): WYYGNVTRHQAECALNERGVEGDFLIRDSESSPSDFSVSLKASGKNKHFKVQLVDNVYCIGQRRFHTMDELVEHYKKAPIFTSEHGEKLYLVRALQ
Chain of VAV2 SH2 domain (human) (P52735 673-767): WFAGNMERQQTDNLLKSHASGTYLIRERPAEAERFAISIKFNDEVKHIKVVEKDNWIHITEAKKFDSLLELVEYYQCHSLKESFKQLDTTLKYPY
Chain of LYN (Homo sapiens) (P07948 124-231): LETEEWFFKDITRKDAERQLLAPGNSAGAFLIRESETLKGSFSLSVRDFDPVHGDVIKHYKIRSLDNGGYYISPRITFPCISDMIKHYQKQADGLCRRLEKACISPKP
Chain of PIK3R1-NC (Homo sapiens) (P27986 328-723): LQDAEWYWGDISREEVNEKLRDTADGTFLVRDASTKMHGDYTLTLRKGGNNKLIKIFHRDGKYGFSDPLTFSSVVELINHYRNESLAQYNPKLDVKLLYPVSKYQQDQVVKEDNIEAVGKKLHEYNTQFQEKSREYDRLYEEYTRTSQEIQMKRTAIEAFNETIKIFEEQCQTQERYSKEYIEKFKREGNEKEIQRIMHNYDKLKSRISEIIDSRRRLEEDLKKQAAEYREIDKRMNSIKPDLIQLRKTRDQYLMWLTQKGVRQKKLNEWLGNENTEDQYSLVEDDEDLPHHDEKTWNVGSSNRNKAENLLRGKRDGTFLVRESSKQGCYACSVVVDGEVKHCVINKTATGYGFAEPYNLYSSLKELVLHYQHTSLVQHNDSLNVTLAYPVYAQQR
Chain of PIK3R1-N (Homo sapiens) (P27986 328-723): as above
Chain of SHC1 (Homo sapiens) (P29353 483-583): as the sequence (P29353 483-583) above
Chain of TEC (Homo sapiens) (P42680 242-350): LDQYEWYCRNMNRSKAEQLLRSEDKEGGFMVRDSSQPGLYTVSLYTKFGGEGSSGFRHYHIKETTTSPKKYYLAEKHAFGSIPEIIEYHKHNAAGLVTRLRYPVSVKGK
Chain of BLK (Homo sapiens) (P51451 119-225): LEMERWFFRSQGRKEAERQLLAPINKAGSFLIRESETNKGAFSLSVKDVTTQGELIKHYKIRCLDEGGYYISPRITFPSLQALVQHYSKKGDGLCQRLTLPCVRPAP
Chain of HSH2D SH2 domain (human) (Q96JZ2 34-125): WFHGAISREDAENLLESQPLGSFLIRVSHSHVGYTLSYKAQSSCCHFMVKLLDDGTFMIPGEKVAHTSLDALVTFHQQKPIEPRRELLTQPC

In the case of “ErbB4 pY1202 phosphopeptide (18-mer), rhodamine-labelled, for protein microarrays”, the Kd in the test with SRC SH2 domain (human) is 399 nM; in test [1], 408 nM and 605 nM and 1530 nM; with SHF SH2 domain (human) it was 11900 nM; in test [2] it was 8560 nM; in the test with ITK SH2 domain (human) it was 723 nM; in the test with NCK2 SH2 domain (human) it was 10100 nM. Also, the Kd in test [3] is 30900 nM; in test [4], 653 nM; in test [5], 1720 nM and 1180 nM; with ABL2 SH2 domain (human), 997 nM and 965 nM; with HSH2D SH2 domain (human), 967 nM; in [6], 1260 nM. The Kd in [7] is 662 nM; in test [8], 167 nM and 544 nM; with VAV2 SH2 domain (human), 9500 nM; in test [9] it was 1000 nM.

With “GRB7 SH2 domain (from UniProt Q14451 431-527) (domain or fragment)”, the Kd in test [10] and in [11] was under 100 nM in each case.

With …pYLRVAPQSd, the apparent Kd (screen) in the test with SHC3 (Homo sapiens) was 1030 nM; with BLK (Homo sapiens), 500 nM; with ITK (Homo sapiens), 500 nM; with LYN (Homo sapiens) it was 171 nM; in the test with CRKL (Homo sapiens), 1340 nM; with PIK3R3-NC (Homo sapiens) [12], 805 nM. Further, the apparent Kd (screen) was 500 nM in the test with PIK3R1-N (Homo sapiens); 214 nM with ABL2 (Homo sapiens); 127 nM with YES1 (Homo sapiens); 500 nM in the test with PLCG2-NC (Homo sapiens); 708 nM with RASA1-N (Homo sapiens); 618 nM with FGR (Homo sapiens). The apparent Kd (screen) in the test with SRC (Homo sapiens) was 381 nM; with SYK-N (Homo sapiens) it was 294 nM; with SHC1-PTB (Homo sapiens) [13] it was 317 nM; in the test with PIK3R2-N (Homo sapiens) it was 500 nM; in the test with GRB2 (Homo sapiens), 415 nM; in the test with TEC (Homo sapiens), 480 nM. For the same substance, the apparent Kd (screen) in the test with SYK-NC (Homo sapiens) is 380 nM; in the test with SHC1 (Homo sapiens), 777 nM; in the test with PIK3R3-NC (Homo sapiens) [14] it was 1110 nM; with GRB7 (Homo sapiens), 500 nM; with CRK (Homo sapiens), 1070 nM; with SHC1-PTB (Homo sapiens) [15], 337 nM. The apparent Kd (screen) in the test with RASA1-NC (Homo sapiens) and with PIK3R1-NC (Homo sapiens) was 500 nM in each case.
